Results from the domain aggregation screens of Martell et al. (2025).

Assay: soluble fraction after stress (log2 fold change); higher = more stays soluble; pooled small domains, quantitative proteomics
Conditions: stress: 50 degC
How it was run: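 Each library was heated to 50°C as a stress step. The libraries, made up of small protein domains, were pooled and analysed at high throughput by quantitative proteomics. The reported value is the base-two logarithm of the fold change in each protein's soluble amount after stress, taken as a measure of aggregation propensity. The higher the value, the more protein stays in solution.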

| Sequence | soluble fraction (log2) |
| --- | --- |
| HMTDKLIAYSVDGILNVITSEAQSVKVYAIDGRLVRILQLGEGRNEVSGLAKGIYIVDNRKVAV | -1.71 |
| HMDLYIILGLERSATLSDVRRAYRRLARKYHPGINPGDRNSASVFTRVSEAYQVLSDPEQRRRYDSR | -2.81 |
| HMSSQWWYSAGGERKGPVDFATLRGLYVQGAIDGRTLAWREDMQGWEAVNDIPDLEPLRRAVPPEL | -0.0348 |
| HMDVLTARENEVLQLLAKGMSNKEIASVLVITEKTVKAHVSSILSKLNLSDRTQAALYAVKNGI | -0.151 |
| HMAPKVTLNETETAIFEKMQQEKQLLLSELRTHFDISNKLWDTSIKTLTKNQLLTVSKEADLLWIKL | -0.658 |
| HMIERLVVSPAAGVFTKKMSVENNTRIDVGHVLGHVGETEVRSPFAGILQNYIAVDGERLTAHQPIAWLRS | 0.00717 |
| HMENVMLRNFAIQATEAGVIKLLEDQRTFVWGSNNKKFMTVPFDEHPYSAMAAFFKTDEGLEIYKSIEKKF | -1.71 |
| HMKILVTDDNIRIDKYLTTQTEYSRSTIQKMIESNNILVNNKPTKSNYILRNNDEITIDENFNEE | -0.11 |
| HMNDPIESLTPREREVLTLMAEGRTNAAIAAQLVVTEGAVEKHTQHIFAKLGLLPDSAVHRRVKAVLALLS | -1.75 |
| HMETGKLIKELRLKKGMTQEELADKTEVSSRTIQRIENGEVDPRAYTLQMIARALEVDYSLFME | 0.0531 |
| HMIKDSKAAYKILGVDENATNEEIKKAYRQLVINHHPDKVSHLGEDIQRAANEKLKQINAAYDEIKKQRGF | 0.237 |
| HMAVDPSVLTRRERQALAWIARGLSNKEVARGLNLAESTVKVHVQSILRKLNLTSRVQAAVYAIEHGIDK | -2.79 |
| HMQLDLTSTLDHMYKQMRNDHPRALLMAVEKEMVLRALKETDGNQLRASDILGISRSTLRKRIEEFDINS | -1.09 |
| HMGAYITYEVKPGDTLWDIANKFPGVSADNIKTWNKVDELIKAGERLKINTQTITDYSPDKYPS | -0.221 |
| HMRAGALTTLTERERNVFDLVVTGHSNPEIARQLSIADVTVKTHVGHILSKLGVRDRVHLVIWAHRQGLAD | -2.61 |
| HMGSDLVAWAQTRIGRHPEEAADVIAALIDRHGEARVRAASRSLLARKFAHASDLRTAIDAAIG | -0.0161 |
| HMAMDSGELEAIVDRLISEHPDDWAALTAGDDRERKKKSGFFVGEVMKATRGQADGRAVIELLASRSA | 0.00605 |
| HMDGIRLYPGLMIEHKNFGRGQVVSVNRERGTFTAFFGKNGTRTLTIQILKTDTVRPLASQKAGK | 0.212 |
| HMGTEITEQRAKEIALENAKVAESDVTAMRVKKEMDDGVWRYDVEFYVQNKEYDYEINAMDGTILSVDYD | -0.04 |
| HMTAVAAEQQAQDAYRQTAANNLNEIQAKYKLPDSESDDFFTFAYERGFTQEDFIDIGLVDKIMGDYV | 0.0927 |
| HMQDKLLRKKEVLEMVSITNSTMYRMIGSGQFPRPIRLDNANINSGVRWKLSEINTFIEQRF | -0.409 |
| HMITVPKVINMSETQARQTLDALGLNVTLSATQVMNDKIPYGYVAAQSYSAGKEVPAGTTIELTMSIGL | -0.945 |
| HMELSSRQAMIVDIVRKYEPITSEQIADKLNLTRSALRPDLAVLTMIGILEARPRVGYFFTGK | 0.141 |
| HMTLTPEQQAARRSEIVDIALRLIAENGFQKTSMREIADLAKMGKSSLYDFFKTKDEIAVYAMEKK | -0.283 |
| HMDAAANTLRILKALSESPMSADRLAELLMEEGSGRNPRTIRRYIRALREAGFGVEHREGRYVL | -0.381 |

| Sequence | soluble fraction (log2) |
| --- | --- |
| HMQEPIAVPDFINKSAVDVLVNPVFTQNFKLVSEDVYDDKVPEGYIVGQSVKSDTLVQPGTEIVIYV | 0.175 |
| HMGRKPVSPEIVERVLQLAKSNPDWGYEHIAGTMRYLGYNVSATTIRHILEANGIVPDPERRL | -0.128 |
| HMYAGTWISESGQWKYRNDDGSFAKGWFQDLDSRWYYFDANGHMLSDTLTPDGYRLGEDGAWVND | -0.638 |
| HMDDFNLSPREKDVLGHLVKGNSYKMIADELQIGYDTVHSHIKKIYKKLHVNSMSEAVAKALKNKL | 0.543 |
| HMQGTTTELLIQKSALYEELNDPEKALNAMFDAFEMDSLNVNVLHRIVSLLLDKEENEKAILYNQLIIDH | 0.126 |
| HMSLDTASDKELLGLIVSEPIATRVLDAFRTLDATLFRTTPAELAAAAGVSSEHAQKIKAVAEIAARMLKP | -0.377 |
| HMSFPQVELNTNKGRIVLELNSEKAPKTVANFLEYVRDGFYDGVIFHRVIDGFMIQGGGFDENFKEKA | -0.229 |
| HMGKFMVQVGAFSRINGAEITRTKYDNLGTHKAIIKNLDGMNRVFLTGFLSEDEARDFIASSNLKGAFIIR | -1.66 |
| HMSLRGEKTYDEAHQKLIKSAVELFKNPLVSPEKITVSQIAKHAGVSVATAYNHFPENKLDIYGSIF | -0.071 |
| HMDDADPYEILGVERDAEDAEIKRAYHDLIRENHPDRLMAEGLPQEMIDVANEKVAFINDAYDRIEKLRGM | -0.241 |
| HMPHILEITSSKILDELQDEKKMVYFHFEKQSNQYVYRLIFNSKNELMEFKKSLEKNSSILDVRADM | 0.216 |
| HMEINEDEIYEKIMIEIEQDNKVKSTWAKALSQSDGNKDKAESLYISMRFEELKYHQSYQKEELNLKDNQQ | 0.0911 |
| HMKSQVVAYSDFVKAVNQKQINEVQIQGDKIRAINKAGEEITVTWLQNDQKLMDDLLDNNVKTIFLE | 0.29 |
| HMGQNYTIVKGDSLWKIAQKQYGDGSQWKKIYDANKDAIESAAKKYGKKSSDSGKWIYPGVSLII | 0.0704 |
| HMETIGENIKTYRQKKGYTQEEVANRLHVTRQTISKWEKNYSIPDAEVLVKLADVLEVQTSQLLGV | 0.102 |
| HMQQISDPQVLRPMAEEVLHQSQKVVQDYKGGNKNAFHALVGQMMKKTQGKGNPQVIGQVLSELLDE | 0.476 |
| HMLQADALADPVGWALRTLGFDLEAGTPERSAIQRSFRQSLIEAHPDHGGADDEAAQRIADITEARRILLA | -0.346 |
| HMEFTVFMNSAGGSKLQVVKTVKELTGLGLKEAKAIVDGSPGPVKEGLSKADAEAMLAKLQEAGADVEL | -0.0948 |
| HMGKSPLDALSAREKEVLTYITRGVSINDIAAVLYLSPKTVSTHKTNLMQKLGIENNADLILFGVNHGLND | -0.513 |
| HMEKALEVKYQKMVELLGDQSTFYVDEVKKIFPEMKKSSLYWNMSKLVEGGYLRRIRNGVYAFNE | -0.48 |
| HMNEKEAEEAAEAQTEVPDVTGMAPAQAKNMLYQAGLSSEYRGEGETVSRQLPPAGETVNRGTKAVLYL | 0.0278 |
| HMRRKNQVQSSYQKRENGTYTVRFFLSDDMGSIMDLQLMATREDMARALRERFLKDPEKIYGQIMQMLLR | -0.255 |
| HMNPNPFVNLSPRELEVLNLLFKGYGVLEISNELNIGQTTASTFKSRILKKTSTHSVVELIKLAEQYGFIP | -0.508 |
| HMGTIEQAFKGKAPGSAHLYDRARAVLAGGVTHDTRIHAPFPIMVQRALGARKWDVDGNEYIDY | 0.0863 |
| HMEPEVSNTYEKVLGMHHFSSTRSHQLHDLVRQANALELSLGEIESIAQSAKDGAQVISDIKHWMEPNRQ | 0.266 |
